Bridge positions count the residues as written; N and C are the ends. Square brackets hold non-standard residues; d marks the D form. Ends that are not written are not given here. Lys(N3) = [N-]=[N+]=NCCCC[C@H](N)C(=O)O; Pra = C#CC[C@H](N)C(=O)O
Assays:
Conditions in all cases: both partners purified
[1] = molecular target: T1, recombinant human αvβ6 integrin (human, UniProt P06756 31-1048; P18564 22-709); experiment: ELISA; competitive integrin binding assay: αvβ6-coated plates, isoDGR peptide labeled with peroxidase as probe for the integrin-binding site; Ki
T1 construct: integrin αv subunit, human; integrin β6 subunit, human; details of reagents are in the Supplemental Materials; Such bought integrins are, as I recall, soluble extracellular heterodimers; also called purified αvβ6; source: bought: Bio-Techne

[2] = molecular target: T2, recombinant murine αvβ6 integrin (murine, UniProt P43406 31-1044; Q9Z0T9 22-708); experiment: direct integrin binding assay (near-infrared fluorescence scan of plates); microtiter plates coated with αvβ6 or αvβ8; peptide-IRDye conjugates incubated 1 h, washed, bound fluorescence read with Odyssey CLx; EC50
T2 construct: integrin αv subunit, mouse; integrin β6 subunit, mouse; details of reagents are in the Supplemental Materials; source: bought: Bio-Techne

[3] = molecular target: T3, recombinant human αvβ8 integrin (human, UniProt P06756 31-1048; P26012 43-684); experiment: as above
T3 construct: integrin αv subunit, human; integrin β8 subunit, human; details of reagents are in the Supplemental Materials; also called purified αvβ8; source: bought: Bio-Techne

[4] = molecular target: T1, recombinant human αvβ6 integrin; experiment: as above
[5] = molecular target: T4, recombinant murine αvβ8 integrin (murine, UniProt P43406 31-1044; Q0VBD0 22-681); experiment: as above
T4 construct: integrin αv subunit, mouse; integrin β8 subunit, mouse; details of reagents are in the Supplemental Materials; source: bought: Bio-Techne
T4 sequence (P43406 whole entry, chain 1 of 2): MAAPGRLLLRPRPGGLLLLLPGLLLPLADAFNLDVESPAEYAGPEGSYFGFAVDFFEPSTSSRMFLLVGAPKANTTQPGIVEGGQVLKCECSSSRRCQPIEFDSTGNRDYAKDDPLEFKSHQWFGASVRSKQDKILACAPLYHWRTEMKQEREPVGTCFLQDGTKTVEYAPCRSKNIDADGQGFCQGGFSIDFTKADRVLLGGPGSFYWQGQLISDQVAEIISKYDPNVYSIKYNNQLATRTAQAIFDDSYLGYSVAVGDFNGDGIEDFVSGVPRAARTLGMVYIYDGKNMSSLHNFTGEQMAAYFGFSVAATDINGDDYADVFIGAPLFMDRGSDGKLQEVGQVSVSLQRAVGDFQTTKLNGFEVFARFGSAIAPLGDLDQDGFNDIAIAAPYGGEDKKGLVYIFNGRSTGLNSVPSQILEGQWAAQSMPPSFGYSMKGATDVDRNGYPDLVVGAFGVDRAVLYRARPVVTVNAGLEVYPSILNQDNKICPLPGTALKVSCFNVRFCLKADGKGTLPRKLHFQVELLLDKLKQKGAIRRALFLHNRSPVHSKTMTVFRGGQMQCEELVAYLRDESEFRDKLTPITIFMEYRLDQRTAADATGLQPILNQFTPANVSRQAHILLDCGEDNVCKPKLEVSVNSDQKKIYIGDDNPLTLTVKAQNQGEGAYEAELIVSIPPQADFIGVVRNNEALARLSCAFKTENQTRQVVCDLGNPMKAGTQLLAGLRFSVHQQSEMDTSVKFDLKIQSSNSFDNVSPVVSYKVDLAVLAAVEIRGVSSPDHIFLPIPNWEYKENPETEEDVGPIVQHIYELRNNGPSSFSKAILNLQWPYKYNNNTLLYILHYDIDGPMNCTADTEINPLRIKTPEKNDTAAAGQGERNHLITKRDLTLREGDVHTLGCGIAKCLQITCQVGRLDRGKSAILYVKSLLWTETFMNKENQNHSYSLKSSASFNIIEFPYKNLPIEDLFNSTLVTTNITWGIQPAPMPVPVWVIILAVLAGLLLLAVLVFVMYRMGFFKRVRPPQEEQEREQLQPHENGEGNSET
T4 sequence (Q0VBD0 whole entry, chain 2 of 2): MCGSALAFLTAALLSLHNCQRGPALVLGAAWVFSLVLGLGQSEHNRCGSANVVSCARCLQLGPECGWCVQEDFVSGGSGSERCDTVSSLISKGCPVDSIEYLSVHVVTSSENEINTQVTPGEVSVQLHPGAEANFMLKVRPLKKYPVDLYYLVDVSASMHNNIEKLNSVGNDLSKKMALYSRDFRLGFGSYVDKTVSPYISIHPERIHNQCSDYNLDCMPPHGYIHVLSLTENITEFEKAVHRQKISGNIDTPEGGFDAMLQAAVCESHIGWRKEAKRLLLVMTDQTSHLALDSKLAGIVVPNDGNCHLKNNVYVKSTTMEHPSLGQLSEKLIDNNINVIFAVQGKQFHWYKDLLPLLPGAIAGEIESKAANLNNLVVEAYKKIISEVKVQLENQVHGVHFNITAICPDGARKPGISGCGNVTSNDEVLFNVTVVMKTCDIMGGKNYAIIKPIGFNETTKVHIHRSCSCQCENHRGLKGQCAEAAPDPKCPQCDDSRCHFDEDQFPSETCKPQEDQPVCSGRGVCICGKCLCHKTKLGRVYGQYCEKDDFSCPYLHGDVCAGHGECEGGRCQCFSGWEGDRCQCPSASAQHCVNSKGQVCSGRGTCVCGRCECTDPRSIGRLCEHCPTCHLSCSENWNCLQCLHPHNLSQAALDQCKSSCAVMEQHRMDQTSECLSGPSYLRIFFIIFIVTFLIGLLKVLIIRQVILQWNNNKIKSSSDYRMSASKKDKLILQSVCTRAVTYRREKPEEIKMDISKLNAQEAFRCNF

T2 sequence (P43406 whole entry, chain 1 of 2): as the sequence (P43406 whole entry, chain 1 of 2) above
T2 sequence (Q9Z0T9 whole entry, chain 2 of 2): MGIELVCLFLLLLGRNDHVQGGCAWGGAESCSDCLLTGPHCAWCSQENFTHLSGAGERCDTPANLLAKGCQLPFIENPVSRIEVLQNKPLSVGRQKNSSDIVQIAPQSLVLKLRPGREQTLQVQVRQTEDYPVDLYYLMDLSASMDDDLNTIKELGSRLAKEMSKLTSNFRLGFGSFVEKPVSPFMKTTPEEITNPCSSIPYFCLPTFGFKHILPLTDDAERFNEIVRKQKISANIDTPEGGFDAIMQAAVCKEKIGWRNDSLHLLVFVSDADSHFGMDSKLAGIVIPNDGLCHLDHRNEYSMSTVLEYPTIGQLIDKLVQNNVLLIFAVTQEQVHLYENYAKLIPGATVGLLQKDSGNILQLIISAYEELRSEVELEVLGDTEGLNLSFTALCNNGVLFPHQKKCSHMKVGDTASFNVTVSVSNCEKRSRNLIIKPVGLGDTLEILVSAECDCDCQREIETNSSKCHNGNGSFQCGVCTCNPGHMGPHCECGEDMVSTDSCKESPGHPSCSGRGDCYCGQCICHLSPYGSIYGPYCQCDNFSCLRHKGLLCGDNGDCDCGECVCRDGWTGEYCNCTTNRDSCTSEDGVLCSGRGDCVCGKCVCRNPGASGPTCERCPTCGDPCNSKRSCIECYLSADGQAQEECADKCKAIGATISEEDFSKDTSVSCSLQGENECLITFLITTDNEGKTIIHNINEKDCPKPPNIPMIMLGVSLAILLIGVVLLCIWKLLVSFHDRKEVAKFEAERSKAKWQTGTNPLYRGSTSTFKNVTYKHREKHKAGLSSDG

B1: peptide 5a (peptide)
chain: CFETLRGDLRILSILR[Pra]QNL[Lys(N3)]KELQD-NH2
modifications: triazole 17-21
B1 was tested, and the Ki [1] was 1.7 nM.

B2: 5a-IRDye conjugate (peptide)
chain: C(maleimide‑IRDye 800CW)FETLRGDLRILSILR[Pra]QNL[Lys(N3)]KELQD-NH2
modifications: triazole 17-21
B2 was tested, and the EC50 [2] was 0.9 nM, the EC50 [3] was 1.9 nM and the EC50 [4] was 2.8 nM. It also gave an EC50 [5] of 0.65 nM.

B3: 5a-NOTA conjugate (peptide)
chain: C(maleimide‑NOTA)FETLRGDLRILSILR[Pra]QNL[Lys(N3)]KELQD-NH2
modifications: triazole 17-21
Binder B3 has a Ki [1] of 2.3 nM.

— article PMC9760430, “A stapled chromogranin A-derived peptide homes in on tumors that express αvβ6 or αvβ8 integrins” (International Journal of Biological Sciences, 2023)
